This test has as its target GST-BS69_(50-401) FW point mutant (F293A, W294A) (human) (UniProt Q15326). The test can be described thus: MST.

This is an account of results in article PMC4363072.

GST-BS69_(50-401) FW point mutant (F293A, W294A) (human), sequence (Q15326 50-401 F293A/W294A): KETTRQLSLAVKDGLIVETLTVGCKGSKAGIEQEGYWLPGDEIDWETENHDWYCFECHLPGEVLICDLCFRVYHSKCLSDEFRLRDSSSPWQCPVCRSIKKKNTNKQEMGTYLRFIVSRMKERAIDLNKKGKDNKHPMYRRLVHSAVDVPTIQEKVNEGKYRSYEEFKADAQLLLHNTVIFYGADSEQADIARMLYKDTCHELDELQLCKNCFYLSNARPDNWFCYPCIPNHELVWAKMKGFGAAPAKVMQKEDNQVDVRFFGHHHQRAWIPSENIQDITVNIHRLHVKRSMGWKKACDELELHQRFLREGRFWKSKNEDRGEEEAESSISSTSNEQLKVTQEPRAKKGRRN

Broadly, the Kd is the constant that tells how readily two partners part at equilibrium. Higher therefore signals lower affinity. H3.3K36me3 peptide yielded a dissociation constant (Kd) of 277 µM.
